# Measurements reported in publication PMC4643347.
# Assays:
# [1] = target: ST50, outer-membrane protein of the multi-drug efflux system from Salmonella enterica serovar Typhi (Salmonella enterica serovar Typhi); test: SEC; Superdex 200 10/30 GL; Tris 20 mM pH 7.5, NaCl 150 mM, β-DDM 0.2%; major fraction at about 220 kDa (trimer plus detergent micelle)
# [2] = target: ST50, outer-membrane protein of the multi-drug efflux system from Salmonella enterica serovar Typhi (Salmonella enterica serovar Typhi); test: crystal structure; ST50 crystallised by hanging-drop vapor diffusion; sodium acetate 100 mM pH 4.6, NaCl 86 mM, PEG 8000 10.4%, β-OG 0.4%, 18 °C; 2.98 Å; three protomers per asymmetric unit
substance,measurement,setting,value
"ST50, outer-membrane protein of the multi-drug efflux system from Salmonella enterica serovar Typhi (natural protein)",stoichiometry N,[1],3
same,stoichiometry N,[2],3
